Measurements taken from patent US9180187B2, “Medicament for treating and/or preventing cancer” (TORAY INDUSTRIES, INC., priority 2010, dated 2015).

Columns and labels:
[1] = test system: human breast cancer cell line MDA-MB-157; test: ADCC activity, chromium-51 release; format: cell-based; details: 1 μg antibody, mouse lymphocytes 2×10^5 cells, 10^3 target cells, 4 hours
Method: The above-selected anti-CAPRIN-1 monoclonal antibodies #1 to #11 were evaluated for their cytotoxic activities against cancer cells (ADCC activity). Hybridomas producing the monoclonal antibodies #1 to #11 were each cultured using hybridoma SFM medium (Invitrogen). The thus obtained supernatant was purified using Hitrap ProteinA Sepharose FF (GE HealthCare), replaced with PBS(−), and then filtered through 0.22 μm filter (Millipore). The obtained filtrates were used as antibodies for assay. The human breast cancer cell line MDA-MB-157 (10^6 cells) was collected in a 50-ml centrifuge tube, to which 100 μCi chromium(Cr)-51 was then added, and incubated at 37° C. for 2 hours. Subsequently, the cells were washed 3 times with RPMI1640 medium containing 10% FBS, and then dispensed into each well of a 96-well V-bottom plate at 10^3 cells per well. The thus obtained cells are used as target cell. The above purified antibodies (1 μg each) were added to the cells. Separately, mouse lymphocytes separated from the mouse spleen were further added (2×10^5 cells) and then cultured under conditions of 37° C. and 5% CO2 for 4 hours. After culture, the amount of chromium(Cr)-51 released from cytotoxically impaired tumor cells in a culture supernatant was measured, so that the ADCC activity of each anti-CAPRIN-1 antibody against cancer cells was calculated. […] On the other hand, similar procedures were performed using the monoclonal antibodies (which were prepared in Example 2) reactive with the CAPRIN-1 protein itself, but not reactive with the surface of cancer cells, no cytotoxic activity was observed (see FIG. 1). […] Similarly, the anti-CAPRIN-1 antibodies were examined for ADCC activity against other human cancer cell lines including glioma cell lines (T98G and U373), lung cancer cell lines (A549 and QG56), renal cancer cell lines (Caki-1 and ACHN), a uterine cervix cancer cell line (SW756), a bladder cancer cell line (T24), an esophageal cancer cell line (KYSE180), gastric cancer cell lines (MNK28 and MNK45), a colorectal cancer cell line (SW480), a leukemia cell line (AML5), and a lymphoma cell line (Ramos).

[2] = test system: MCF-7 human breast cancer cell line; test: In vivo combination therapy in tumor-bearing nude mice transplanted with MCF-7; details: experimental section 2 (anti-CAPRIN-1 antibody = #9, 5 mg/kg i.p.), day 26, mouse PBMC given to all groups
Method: IgG2b (R&D systems, catalog No. MAB11291)) were administered in combination, a group to which an antitumor agent and anti-CAPRIN-1 monoclonal antibody were administered in combination, and a group to which control (PBS(−) was administered. In addition, mouse PBMC was administered to all the administration groups. […] PBMC separated from Balb/c mouse spleen was intravenously administered to each mouse at 1×10^7 cells/0.2 mL (RPMI1640) on days 0, 8, and 15 after the start of the experiment. […] PBMC separated from Balb/c mouse spleen was intravenously administered to each mouse at 1×10^7 cells/0.2 mL (RPMI1640) on days 0, 8, and 15 after the start of the experiment. Paclitaxel was intraperitoneally administered to each of 5 tumor-bearing mice at 15 mg/kg/shot on days 0 and 3 after the start of the experiment. PBMC separated from Balb/c mouse spleen was intravenously administered to each mouse at 1×10^7 cells/0.2 mL (RPMI1640) on days 0, 8, and 15 after the start of the experiment. Docetaxel was intraperitoneally administered to each of 5 tumor-bearing mice at 10 mg/kg/shot on days 0 and 3 after the start of the experiment. PBMC separated from Balb/c mouse spleen was intravenously administered to each mouse at 1×10^7 cells/0.2 mL (RPMI1640) on days 0, 8, and 15 after the start of the experiment. […]

B1: monoclonal antibody #9: mouse anti-CAPRIN-1 monoclonal antibody; heavy chain variable region SEQ ID NO: 103, light chain variable region SEQ ID NO: 107 (antibody, listed as Mus musculus, V domains shown)
VH: PRASLGVSETLLCTSGFTFTDYYMSWVRQPPGKALEWLGFIRNKANGYTTEYSASVKGRFTISRDNSQSILYLQMNTLRAEDSATYYCARANWAFDYWGQGTTVTVSSK
VL: SGDRVSLSCRASQSISNYLHWYQQKSHESPRLLIKYASQSISGIPSRFSGSGSGTDFTLSINSVETEDFGMYFCQQSNSWPYTFGGGTKLEIKQ
[1]
  ADCC activity (cytotoxic activity) against MDA-MB-157: 32.4%
[2]
  tumor volume relative to PBS(−) control group designated at 100%: about 45%
